Data reported in US8263326B2, “Compounds and methods for modulating activation of NF-κB” (Signal Pharmaceuticals, LLC, priority 1998, dated 2012).
Non-standard residues stand in square brackets, D forms with d. No end group written: not given here. pS = N[C@@H](COP(=O)(O)O)C(=O)O

Key:
β-TrCP = molecular target: T1, β-TrCP (Homo sapiens, UniProt Q9Y297); assay: Peptide competition of β-TrCP binding to pIκBα; conditions: FIG. 11B
T1 construct: made in house; host or cells: transfected 293 (293T) cells, immunoprecipitated through FLAG
Description: (§1) FIGS. 11A-11C are Western blots illustrating binding and ubiquitination specificity of E3 ubiquitin ligase family members. Within these figures, mβ-TrCP indicates mouse β-TrCP, hβ-TrCP indicates human β-TrCP, Δβ-TrCP indicates human β-TrCP with a deletion of the F box region and Slimb indicates the Drosophila Slimb protein. FIG. 11A illustrates selective binding to pIκBα. Proteins were immunoprecipitated through a FLAG epitope from transfected 293T cells, incubated with immunopurified IκBα/NF-κB complex, which had been treated (−/+IKK) as indicated and the bound material was analyzed by Western blotting with the indicated antibodies. […] FIG. 11C illustrates in vitro ubiquitination of pIκBα by the E3 family member proteins. Immunopurified FLAG-tagged proteins were incubated with ^35 S-labeled IκBα/NF-κB complexes, treated (−/+IKK) as indicated and subject to ubiquitination in the presence of ATPγS, ubiquitin. E1 and UBC5C. The IκBα substrate (composed of full-length and two degradation products), pIκBα-polyubiquitin conjugates and molecular size markers are indicated on the left.
The ability of these proteins to bind pIκBα specifically and assist in its ubiquitination was examined in a cell-free system. […] The bound material was analyzed by Western blotting with anti-IκBα and anti-FLAG antibodies. […]

[1] = system: pIκBα-associated ubiquitin-ligase; assay: In vitro ubiquitination of pIκBα/NF-κB complex immunopurified from TNFα-stimulated HeLa cells with E1 and UBC5C; assay type: biochemical, human; conditions: Bestatin 40 μg/ml, FIG. 5
Description: To further study the recruitment of components of the ubiquitin machinery by phosphorylated IκBα-complexes, pIκBα/NF-κB complexes were purified from proteasome inhibited, TNF-α stimulated HeLa cells, and their ubiquitination potential was evaluated. HeLa cells were pre-incubated with the proteasome inhibitor ALLN (150 μM) for 1 hour and stimulated for 10 minutes with TNFα. […]
The immunopurified fraction was supplemented with various components of the ubiquitin system and subjected to in vitro ubiquitination. […] The reaction mix was then boiled in SDS-buffer and the sample analyzed by SDS-PAGE (8.5%) and phospho-imaging.
To determine the source of the IκBα-conjugates, the ubiquitination reactions were performed in the presence of a pIκBα peptide (pp12; CDRHDS[PO3]GLDS[PO3]; SEQ ID NO:22) (lane 7) or a serine/glutamic-acid substituted IκBα peptide (p12S/E) (lane 8). Both peptides were synthetic, purchased from Alfa-Diagnostic, Inc., and then HPLC-purified, analyzed by mass spectrometry, verified for the predicted structure and proven to be over 85% pure. […]

[2] = system: ubiquitin-ligase activity associated with the pIκB-complex; assay: Recruitment of ubiquitin-ligase activity from HeLa lysate to IKK2-EE phosphorylated IκBα/NF-κB complex; assay type: biochemical, human; conditions: peptide included in incubation with HeLa lysate, FIG. 6
Description: Following immunoprecipitation of ^35S-labeled IκBα/NF-κB complexes from a non-stimulated HeLa lysate previously incubated with recombinant ^35S-labeled IκBα, the complexes were phosphorylated by the recombinant IKK2-EE, eluted with the p65 cognate peptide and subjected to in vitro ubiquitination. After incubation with IKK2-EE, nearly all of the ^35S-IκB was phosphorylated. […] Therefore, IκB phosphorylation by IKK was not sufficient to promote its ubiquitination in the presence of E1 and E2. Conceivably, pIκBα ubiquitination requires an additional component of the HeLa lysate that was not co-immunopurified from non-stimulated cells.
To confirm this hypothesis, immuno-bound IκBα/NF-κB complexes were incubated with a non-stimulated HeLa lysate, either directly or following IKK2-EE phosphorylation, washed extensively with high-salt buffer and eluted with the p65 peptide. Indeed, incubation of the phosphorylated IκB complexes (FIG. 6 lane 3), but not of the non-phosphorylated ones (lane 1), with the HeLa lysate, provided the pIκB-ligase component(s) necessary for pIκBα conjugation. No signal was obtained when E1 or E2 were omitted from the reaction, confirming that the signal at the top of the gel represents poly-ubiquitin IκBα-conjugates (lanes 5, 6). […]

[3] = system: pIκBα-associated proteins (p54, p58, p61, 64 kD); assay: Association of 35S-labeled HeLa lysate proteins with immuno-bound pIκBα/NF-κB complex (SDS-PAGE, autoradiography); assay type: binding, human; conditions: peptide added to radiolabeled HeLa lysate, FIG. 7B
Description: HeLa extract (250 mg) was incubated with 250 μl anti-p65 immunobeads. Following four washes in buffer A (1M KCl, 0.5% NP40, 50 mM Tris buffer pH 7.6, 1 mM DTT) and one wash in buffer B (50 mM Tris buffer, pH 7.6, 1 mM DTT), half the beads were subject to in vitro phosphorylation with IKK and half underwent mock-phosphorylation. The beads were washed twice in buffer A and once in buffer B, agitated with 100 mg HeLa extract in the presence of 1 μm okadaic acid for 30 min at 25° C., washed four times with buffer A, once in buffer A and eluted with 1 mg/ml p65 peptide. A similar experiment was performed with 10 mg ^35 S-metabolically-labeled HeLa cell lysate (100 μCi/ml Met/Cys for 8 hours) and 25 μl p65-immunobeads. Eluate-fractions derived from both the hot and cold lysates were mixed, boiled in SDS-sample buffer and analyzed by 7.5% SDS-PAGE and autoradiography. Gel slices corresponding to the autoradiogram signals were excised and their protein-bands sequenced by mass-spectrometry, as described below.
To circumvent the possible masking of the putative pIκB-ubiquitin ligase, we replaced the ligase source with ^35S-biosynthetically-labeled HeLa lysate and traced the IκBα-associated proteins by SDS-PAGE analysis and autoradiography (FIG. 7B). In parallel, the various fractions were tested for their ubiquitin-ligase capacity. […]

pIκBα = molecular target: T2, pIκBα (Homo sapiens, UniProt P25963); assay: Binding of immobilized FLAG-tagged E3 family members to IκBα/NF-κB complex (Western blot); conditions: FIG. 11A
T2 construct: The IκBα/NF-κB complex was immunopurified from HeLa cells; endogenous in cells; host or cells: HeLa cells
Description: as §1
The ability of these proteins to bind pIκBα specifically and assist in its ubiquitination was examined in a cell-free system. The IκBα/NF-κB complex was immunopurified from HeLa cells and the immune complex was either phosphorylated with IKK2-EE or mock-phosphorylated as described above. It was then incubated with the following immobilized FLAG-tagged E3 family members immunoprecipitated from transfected 293 cells: mouse β-TrCP (mβ-TrCP), human β-TrCP (hβ-TrCP), human β-TrCP with a deletion of the F box region residues 122-168 (Δβ-TrCP) and the Drosophila Slimb protein. The bound material was analyzed by Western blotting with anti-IκBα and anti-FLAG antibodies. […] Furthermore, β-TrCP binding was abrogated by a peptide representing the pIκBα recognition motif (pp10; DRHDS(PO3)GLDS(PO3)M (SEQ ID NO:29); see FIG. 11B, lane 3), but not by the control peptide (lane 4), specifying the site of pIκBα recognition of the conserved DS(PO3)GLDS(PO3) (SEQ ID NO:30) sequence.

[4] = system: NF-κB activation in Jurkat cells; assay: κB-dependent luciferase assay in P/I-stimulated Jurkat cells; assay type: cell-based; conditions: transient over-expression in stimulated Jurkat cells
Source text: FIGS. 12A and 12B illustrate inhibition of IκBα degradation and NF-κB activation by overexpression of Δβ-TrCP, a dominant negative molecule. FIG. 12A is a graph depicting the results of a κB-dependent luciferase assay in P/I-stimulated Jurkat cells transfected with κB-Luc reporter plasmid and the indicated expression vectors (i.e., from left to right, vector alone, vector encoding human β-TrCP, vector encoding human β-TrCP with a deletion of the F box region and vector encoding Drosophila Slimb protein). NF-κB activity is shown as relative (fold) luciferase activity, the non-stimulated empty FLAG vector being the reference (single-fold). FIG. 12B depicts the results of western blot analysis of IκBα of phorbol-ester and Ca^++ ionophore [P/I]-stimulated and non-stimulated Jurkat cells transfected with an empty FLAG vector or Δβ-TrCP. The post-stimulation interval (min) is indicated.

T2 sequence (P25963 whole entry): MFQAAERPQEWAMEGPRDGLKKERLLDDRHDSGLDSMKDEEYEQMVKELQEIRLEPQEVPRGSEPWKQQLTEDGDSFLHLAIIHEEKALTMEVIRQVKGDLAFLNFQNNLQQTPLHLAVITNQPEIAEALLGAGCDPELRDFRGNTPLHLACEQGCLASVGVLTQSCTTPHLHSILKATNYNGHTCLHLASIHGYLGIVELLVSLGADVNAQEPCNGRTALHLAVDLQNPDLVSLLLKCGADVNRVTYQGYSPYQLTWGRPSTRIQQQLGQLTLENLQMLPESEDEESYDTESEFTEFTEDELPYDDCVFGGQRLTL
T2 sequence (Q04206 whole entry partner): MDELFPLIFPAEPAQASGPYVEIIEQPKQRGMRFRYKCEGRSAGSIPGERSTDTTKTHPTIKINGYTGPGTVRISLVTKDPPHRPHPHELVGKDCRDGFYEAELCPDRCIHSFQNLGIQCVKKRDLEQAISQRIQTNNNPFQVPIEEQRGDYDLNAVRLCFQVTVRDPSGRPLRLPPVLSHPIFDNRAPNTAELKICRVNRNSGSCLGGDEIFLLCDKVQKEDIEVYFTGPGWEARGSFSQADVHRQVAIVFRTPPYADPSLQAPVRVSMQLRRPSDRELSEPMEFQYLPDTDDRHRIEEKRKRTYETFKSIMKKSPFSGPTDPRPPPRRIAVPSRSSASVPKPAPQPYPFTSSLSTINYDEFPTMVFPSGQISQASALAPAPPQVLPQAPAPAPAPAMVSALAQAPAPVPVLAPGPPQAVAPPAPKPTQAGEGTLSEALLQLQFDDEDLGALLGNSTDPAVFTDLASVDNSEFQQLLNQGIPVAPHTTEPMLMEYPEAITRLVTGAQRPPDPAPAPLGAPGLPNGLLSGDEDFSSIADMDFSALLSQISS
T1 sequence (P63208 whole entry partner, one chain of several): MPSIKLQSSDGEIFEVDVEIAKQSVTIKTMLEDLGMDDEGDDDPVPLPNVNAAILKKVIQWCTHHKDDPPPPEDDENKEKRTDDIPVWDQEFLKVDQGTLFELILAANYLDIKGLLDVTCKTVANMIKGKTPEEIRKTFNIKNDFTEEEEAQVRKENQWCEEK

**Q.** How did the “effect of peptide on β-TrCP-pIκBα binding” value (β-TrCP) turn out when “pp10: peptide representing the pIκBα recognition motif, DRHDS(PO3)GLDS(PO3)M, SEQ ID NO:29 (DRHD[pS]GLD[pS]M; listed as Homo sapiens)” was run?
**A.** abrogated

**Q.** “pp12: pIκBα peptide CDRHDS[PO3]GLDS[PO3]; SEQ ID NO:22 (CDRHD[pS]GLD[pS]; listed as Homo sapiens)” was tested. Which “formation of polyubiquitin-IκBα conjugates” value [1] did it give?
**A.** abolished

**Q.** And the “ubiquitin-ligase activity associated with the pIκB-complex” value [2]?
**A.** abrogated

**Q.** And the “association of distinctive 35S-protein bands with pIκBα” value [3]?
**A.** three bands were eliminated

B1: hβ-TrCP: FLAG-tagged human β-TrCP, E3 family member (protein)
chain: MDPAEAVLQEKALKFMNSSEREDCNNGEPPRKIIPEKNSLRQTYNSCARLCLNQETVCLASTAMKTENCVAKTKLANGTSSMIVPKQRKLSASYEKEKELCVKYFEQWSESDQVEFVEHLISQMCHYQHGHINSYLKPMLQRDFITALPARGLDHIAENILSYLDAKSLCAAELVCKEWYRVTSDGMLWKKLIERMVRTDSLWRGLAERRGWGQYLFKNKPPDGNAPPNSFYRALYPKIIQDIETIESNWRCGRHSLQRIHCRSETSKGVYCLQYDDQKIVSGLRDNTIKIWDKNTLECKRILTGHTGSVLCLQYDERVIITGSSDSTVRVWDVNTGEMLNTLIHHCEAVLHLRFNNGMMVTCSKDRSIAVWDMASPTDITLRRVLVGHRAAVNVVDFDDKYIVSASGDRTIKVWNTSTCEFVRTLNGHKRGIACLQYRDRLVVSGSSDNTIRLWDIECGACLRVLEGHEELVRCIRFDNKRIVSGAYDGKIKVWDLVAALDPRAPAGTLCLRTLVEHSGRVFRLQFDEFQIVSSSHDDTILIWDFLNDPAAQAEPPRSPSRTYTYISR
modifications: left off: small tags and cut ends
notes: FLAG-tagged human β-TrCP, E3 family member
**Q.** Which results are given for B1?
**A.** relative binding of IκBα / pIκBα (pIκBα; comparison between family members): far better than the highly homologous Drosophila protein; binding to IKK-phosphorylated versus mock-phosphorylated IκBα (pIκBα; FLAG-tagged protein from transfected 293 cells): exclusively bound IKK-phosphorylated, but not mock-phosphorylated, IκBα; activation of NF-κB [4]: not inhibitory
